This is an account of results in patent US20100087625.

Changes are numbered by the printed parent chain.

The subject of series [1] is T1, S1S2proBMP-2 (human proBMP-2 with S1 site REKR replaced by TNGIEGRALDP and S2 site RISR mutated to AISR; construct IND2372).
T1 sequence: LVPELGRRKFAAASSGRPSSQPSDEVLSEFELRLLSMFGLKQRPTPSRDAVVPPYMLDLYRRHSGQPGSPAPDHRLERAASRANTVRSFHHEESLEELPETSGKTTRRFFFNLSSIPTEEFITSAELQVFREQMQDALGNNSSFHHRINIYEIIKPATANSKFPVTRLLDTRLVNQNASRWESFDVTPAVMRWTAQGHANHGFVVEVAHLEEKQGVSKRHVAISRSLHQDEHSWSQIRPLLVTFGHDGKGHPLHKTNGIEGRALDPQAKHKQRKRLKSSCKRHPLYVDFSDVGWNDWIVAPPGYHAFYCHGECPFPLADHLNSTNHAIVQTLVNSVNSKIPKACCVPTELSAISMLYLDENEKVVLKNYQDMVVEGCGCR

The test system of series [2] is T2, S1proBMP-2 (human proBMP-2 with the S1 furin cleavage site REKR replaced by TNGIEGRALDP; constructs IND2340 and IND2341).
T2 sequence: T1 sequence with A222R

The subject of series [3] is T3, recombinant human proBMP-2 (wild type, produced by CHO-BMP-2 cells).
T3 sequence: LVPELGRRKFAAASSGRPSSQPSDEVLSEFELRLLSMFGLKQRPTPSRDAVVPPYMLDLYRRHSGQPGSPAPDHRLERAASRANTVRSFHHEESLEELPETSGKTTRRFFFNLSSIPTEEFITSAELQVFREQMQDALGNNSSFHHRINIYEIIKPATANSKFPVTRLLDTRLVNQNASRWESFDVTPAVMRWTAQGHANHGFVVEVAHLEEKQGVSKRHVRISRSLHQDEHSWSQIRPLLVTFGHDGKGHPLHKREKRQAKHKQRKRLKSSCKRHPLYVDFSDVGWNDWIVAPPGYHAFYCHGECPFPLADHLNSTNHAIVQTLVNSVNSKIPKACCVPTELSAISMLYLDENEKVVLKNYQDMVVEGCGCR

Regarding “Factor Xa (Restriction Protease Factor Xa Cleavage and Removal Kit, Roche Applied Science Cat #1 644 777)”, the “Western blot after digestion with Factor Xa” value in series [1] is “Cleavage of mutant BMPs S1 proBMP and S1 S2proBMP-2 by Factor Xa produced a mature BMP-2 that remained a dimer under non-reducing conditions with an apparent molecular weight of 30-32 KD”; in series [2], “Cleavage of mutant BMPs S1 proBMP and S1 S2proBMP-2 by Factor Xa produced a mature BMP-2 that remained a dimer under non-reducing conditions with an apparent molecular weight of 30-32 KD”.
Take furin (Sigma): the “Western blot after in vitro digestion with furin” value in series [3] was “the purified CHO proBMP-2 monomers migrated at approximately 55 kDa were cleaved after 1 hr incubation with furin”.
